Laboratory results: paper PMC3063151 (The Journal of neuroscience : the official journal of the …, 2011)

How the values were obtained:
crystal structure = biological target: the molecule itself; experiment: crystal structure
SEC = biological target: the molecule itself; experiment: SEC

Protein | binding result (crystal structure) | stoichiometry N (SEC)
GluN1-NTD (crystallised; from GluN1-NTD-8His) (domain or fragment, N-linked N-acetyl glucosamine at N61, N203, N239, N276 and N300 (EndoH treated)) not shown | binds | 
GluN1-NTD-Y109C, purified (gel filtration and negative stain EM) (domain or fragment) not shown |  | 2
